Reference: patent US20160257732A1 (published 2016)
Where two headings read alike, the source gives them in different places.

B1: Antibody 8 (antibody, V domains shown)
VH: QVQLQQSGPGLVKPSQTLSLTCVISGDTVSSNRATWNWMRQSPLRGLEWLGRTYYRSKWYNDYAVSVKSRVVINPDTSKNQVSLQLNTVTPDDSGVYFCARGGHITVFGVNIDAFDIWGLGTKVTVSS
VL: DIQMTQSPSSLSASVGDRVTISCRASQRLNSYLHWYQQTPGQAPKLLIYATSTLQSGVSPRFSGSGSGTDFTLTISSLQPEDVATYYCQLSRTFGHGTKVEIK
B2: Antibody 5 (antibody, V domains shown)
VH: QVQLQQSGPGLVKPSQTLSLTCAISGDRVSSNSAVWNWIRQSPSRGLEWLGRTYYRSKWYYDYAESVKSRIVIDPDTSKNQVSLQLNSVTPEDSAIYYCARGGHITVFGLNIDAYDIWGQGAMVTVSS
VL: DIQMTQSPSSLSASVGDRVTISCRAQSLSSYLHWYQQKPGQPPKLLIYAATTLQSGVPSRFSGSGSGTDFTLTISTFQAEDVATYYCQQSRTFGQGTKVEIK
B3: Antibody 6 (antibody, V domains shown)
VH: QVQLQQSGPGLVKPSQTLSLTCAISGDRVSSNSAVWNWIRQSPSRGLEWLGRTYYRSKWYYDYAESVKSRIVIDPDTSKNQVSLQLNSVTPEDSAIYYCARGGHITEFGLNIDAYDIWGQGAMVTVSS
VL: DIQMTQSPSSLSASVGDRVTISCRAQSLSSYLHWYQQKPGQPPKLLIYAATTLQSGVPSRFSGSGSGTDFTLTISTFQAEDVATYYCQQSRTFGQGTKVEIK
B4: Antibody 3 (antibody, V domains shown)
VH: QVQLQESGPGLVKPSQTLSLTCAISGDSVSSNNAVWNWIRQSPSRGLEWLGRTYYRSKWYNDYAESVKSRITVNPDTSKNQFSLHLKSVTPEDTAVFYCVRSGHITVFGVNVDAFDMWGQGTMVTVSS
VL: DIQMTQSPSSLSASVGDRVTITCRTSQSLSSYLHWYQQKPGKAPKLLIYAASSLQSGVPSRFSGSGSGTDFTLTISSLQPEDFATYYCQQSRTFGQGTKVEIK
B5: Antibody 11 (antibody, V domains shown)
VH: QVQLQQSGPGLVKPSQTLSLTCAISGDSVSSYNAVWNWIRQSPSRGLEWLGRTYYRSGWYNDYAESVKSRITINPDTSKNQFSLQLNSVTPEDTAVYYCARSGHITVFGVNVDAFDMWGQGTMVTVSS
VL: DIQMTQSPSSLSASVGDRVTITCRTSQSLSSYTHWYQQKPGKAPKLLIYAASSRLSGVPSRFSGSGSGTDFTLTISSLQPEDFATYYCQQSRTFGQGTKVEIK
B6: Antibody 10 (antibody, V domains shown)
VH: QVQLQQSGPGLVKPSQTLSLTCAISGDSVSSNSATWNWIRQSPSRGLEWLGRTYYRSKWYNDYADFLKRRITINPDTSNNEVSLRLTSVTPDDTALYYCARGGHITVFGVNIDAFDVWGQGTMVTVSS
VL: DIQMTQSPSSLSASVGDRITISCRTSQSLRSYLHWYQQKPGKAPKLLIYASSTLQSGVPSRFSGSGSGTDFTLTISNLQPEDFATYYCQLSRTFGQGTKVEIK
B7: Antibody 14 (antibody, V domains shown)
VH: QVQLQQSGPGLVKPSQTLSLTCAISGDSVSSNNAVWNWIRQSPSRGLEWLGRTYYRSKWYNDYAESVKSRITINPDTSKNQFSLQLNSVTPEDTAVYYCARSGHITVFGVNVDAFDMWGQGTTVTVSS
VL: DIQMTQSPSSLSASVGDRVTITCRTSQSLSSYTHWYQQKPGKAPKLLIYAASSRLSGVPSRFSGSGSGTDFTLTISSLQPEDFATYYCQQSRTFGQGTKVEIK
B8: Antibody 15 (antibody, V domains shown)
VH: QVQLQQSGPGLVKPSQTLSLTCAISGDSVSSNNAVWNWIRQSPSRGLEWLGRTYYRSKWYNDYAESVKSRITINPDTSKNQFSLQLNSVTPEDTAVYYCARSGHITVFGVNVDAFDMWGQGTTVTVSS
VL: DIQMTQSPSSLSASVGDRVTITCRTSQSLSSYTHWYQQKPGKAPKLLIYAASSRGSGVPSRFSGSGSGTDFTLTISSLQPEDFATYYCQQSRTFGQGTKVEIK
B9: Antibody 13 (antibody, V domains shown)
VH: QVQLQQSGPGLVKPSQTLSLTCAISGDSVSSYNAVWNWIRQSPSRGLEWLGRTYYRSGWYNDYAESVKSRITINPDTSKNQFSLQLNSVTPEDTAVYYCARSGHITVFGVNVDAFDMWGQGTMVTVSS
VL: DIQMTQSPSSLSASVGDRVTITCRTSQSLSSYDHWYQQKPGKAPKLLIYAASSRLSGVPSRFSGSGSGTDFTLTISSLQPEDFATYYCQQSRTFGQGTKVEIK
B10: Antibody 12 (antibody, V domains shown)
VH: QVQLQQSGPGLVKPSQTLSLTCAISGDSVSSYNAVWNWIRQSPSRGLEWLGRTYYRSGWYNDYAESVKSRITINPDTSKNQFSLQLNSVTPEDTAVYYCARSGHITVFGVNVDAFDMWGQGTMVTVSS
VL: DIQMTQSPSSLSASVGDRVTITCRTSQSLSSYTHWYQQKPGKAPKLLIYAASSRGSGVPSRFSGSGSGTDFTLTISSLQPEDFATYYCQQSRTFGQGTKVEIK

Legend:
Assay in all cases: cell-based or functional assay
[1] = molecular target: HA of ca A/Wuhan/359/95 (H3N2) (influenza A virus)
[2] = molecular target: T1, HA of A/Puerto Rico/8/34 (H1N1) (influenza A virus, UniProt P03452 18-565)
[3] = molecular target: HA of ca A/Wuhan/359/95 (H3N2) (influenza A virus); remark: listed apart in the source
[4] = molecular target: T1, HA of A/Puerto Rico/8/34 (H1N1); remark: listed apart in the source
rHK68_I45T H3 HA = rHK68_I45T H3 HA (influenza A virus)
rHK68_A196T H3 HA = rHK68_A196T H3 HA (influenza A virus)
rHK68_D19Y H3 HA = rHK68_D19Y H3 HA (influenza A virus)
rHK68_D19N H3 HA = rHK68_D19N H3 HA (influenza A virus)
rHK68_I45N H3 HA = rHK68_I45N H3 HA (influenza A virus)
rHK68_I18R H3 HA = rHK68_I18R H3 HA (influenza A virus)
rHK68_Q42R H3 HA = rHK68_Q42R H3 HA (influenza A virus)
rHK68_K156Q H3 HA = rHK68_K156Q H3 HA (influenza A virus)

T1 sequence (P03452 18-565 limits assumed): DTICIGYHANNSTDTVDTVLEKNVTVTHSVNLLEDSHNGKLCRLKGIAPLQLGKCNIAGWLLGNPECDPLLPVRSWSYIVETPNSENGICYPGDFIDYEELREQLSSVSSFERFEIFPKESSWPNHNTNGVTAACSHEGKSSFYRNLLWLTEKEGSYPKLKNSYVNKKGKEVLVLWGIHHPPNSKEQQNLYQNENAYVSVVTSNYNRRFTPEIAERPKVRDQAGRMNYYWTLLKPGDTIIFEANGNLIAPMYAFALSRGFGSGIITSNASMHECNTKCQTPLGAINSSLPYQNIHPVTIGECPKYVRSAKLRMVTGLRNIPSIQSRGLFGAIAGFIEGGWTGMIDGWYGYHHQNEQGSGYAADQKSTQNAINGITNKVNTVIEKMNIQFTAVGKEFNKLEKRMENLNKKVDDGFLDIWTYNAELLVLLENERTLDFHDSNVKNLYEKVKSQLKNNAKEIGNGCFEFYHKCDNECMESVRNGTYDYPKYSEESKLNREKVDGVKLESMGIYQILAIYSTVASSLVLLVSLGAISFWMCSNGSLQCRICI

Binder | Neutralization IC50, H3-WH95 [1] [µg/mL] | Neutralization IC50, H1-PR34 [2] [µg/mL] | Neutralization IC50, H3-WH95 [3] [µg/mL] | Neutralization IC50, H3-WH95-OR [3] [µg/mL] | Neutralization IC50, H1-PR34 [4] [µg/mL] | Neutralization IC50, H1-PR34-OR [4] [µg/mL] | also measured
B1 | > 50 | 3.02 |  |  |  |  | 
B2 | 3.72 | 1.13 |  |  |  |  | 
B3 | 10.5 | 4.37 |  |  |  |  | 
B4 | 3.96 | 1.07 | 5.63 | 7.7 | 2.17 | 1.39 | 
B5 |  |  | 2.45 | 2.26 | 0.88 | 0.73 | 
B6 | 8.7 | 2.15 |  |  |  |  | 
B7 |  |  | 2.77 | 3.09 | 1.25 | 0.83 | 
B8 |  |  | 3.32 | 3.48 | 1.47 | 0.9 | 
B9 |  |  | 2.77 | 3.01 | 1.3 | 0.88 | 
B10 |  |  | 2.09 | 2.34 | 1.07 | 0.69 | Avg. Neut., microneutralization (rHK68_I45T H3 HA): 3.38 µg/mL; Avg. Neut., microneutralization (rHK68_A196T H3 HA): 4.06 µg/mL; Avg. Neut., microneutralization (rHK68_D19Y H3 HA): > 200 µg/mL; Avg. Neut., microneutralization (rHK68_D19N H3 HA): 3.04 µg/mL; Avg. Neut., microneutralization (rHK68_I45N H3 HA): 1.94 µg/mL; Avg. Neut., microneutralization (rHK68_I18R H3 HA): > 200 µg/mL; Avg. Neut., microneutralization (rHK68_Q42R H3 HA): 11.1 µg/mL; Avg. Neut., microneutralization (rHK68_K156Q H3 HA): 3.33 µg/mL
